Measurements: patent US20230357398A1 (MorphoSys, published 2023)

Legend:
[1] = biological target: T1, cynomolgus CD3 epsilon, cell surface expressed (cynomolgus monkey PBMCs) (cynomolgus monkey, UniProt Q95LI5 22-198); test: flow cytometry on cynomolgus monkey PBMCs, IgG titration
T1 construct: On the cells CD3 epsilon is part of the native CD3/TCR complex; also called cyno CD3

[2] = biological target: T2, cyCD3e(1-109)_F-chLys_avi (cynomolgus monkey); test: BLI (Octet HTX); FabCys captured on Fab-specific sensor, CD3e antigen as analyte; 1:1 model; dissociation approaching assay limit
T2 construct: also called cynomolgus monkey CD3 epsilon antigen
T2 sequence (chain, as listed by the source limits assumed): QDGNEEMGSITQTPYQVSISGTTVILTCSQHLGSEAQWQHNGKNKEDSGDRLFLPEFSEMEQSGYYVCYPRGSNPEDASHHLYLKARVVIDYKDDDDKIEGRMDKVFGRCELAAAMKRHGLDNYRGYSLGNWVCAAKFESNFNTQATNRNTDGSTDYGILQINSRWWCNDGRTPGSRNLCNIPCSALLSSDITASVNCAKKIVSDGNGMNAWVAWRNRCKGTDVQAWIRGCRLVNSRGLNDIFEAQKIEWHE
Protocol: (§1) Affinity determination by determining kinetic rate constants was performed on an Octet HTX (FortéBIO, Sartorius AG) instrument as described below.
(§2) The different Fab-Cys samples diluted in assay buffer (D-PBS, 0.05% (v/v) PS 20, 0.1% (w/v) BSA) were captured onto Fab-specific BLI sensors with a loading level of approx. 0.5 nm. […] A blank sample with assay buffer was included for referencing, i.e. correcting for dissociation of captured antibody. The association phase was recorded for 300 s, followed by a dissociation phase of 900 s. After each cycle, the biosensors were regenerated two times with 10 mM Glycine HCl pH 1.7 to remove bound ligand/antibody complex, while maintaining the integrity of the capture surface. Between regeneration steps, biosensors were washed with assay buffer for 20 s.
(§3) The sensorgrams were fitted using Octet Data Analysis Software 10.0 (FortéBio, Sartorius AG) to determine kₒₙ and koff rate constants (using a 1:1 binding model), which were used to calculate KD.

[3] = biological target: T1, cynomolgus CD3 epsilon, cell surface …; test: flow cytometry (FACS) on cynomolgus PBMCs
Protocol: (§4) Antibody staining was measured using a multiformat Flow Cytometer (NovoCyte, Agilent Technologies) and analyzed using NovoExpress software (Version 1.5.0). Lymphocytes were identified by morphological gating of forward and side scatters. EC₅₀ values were calculated using 4-parameter non-linear regression analysis in Prism software (GraphPad Software Inc., version 8.4.3).

[4] = biological target: T3, human CD3 epsilon, cell surface expressed (human PBMCs / human T cells) (human, UniProt P07766 23-207); test: flow cytometry (FACS) on human PBMCs
T3 construct: On the cells CD3 epsilon is part of the native CD3/TCR complex; also called CD3 on human PBMCs
T3 sequence (P07766 23-207 limits assumed): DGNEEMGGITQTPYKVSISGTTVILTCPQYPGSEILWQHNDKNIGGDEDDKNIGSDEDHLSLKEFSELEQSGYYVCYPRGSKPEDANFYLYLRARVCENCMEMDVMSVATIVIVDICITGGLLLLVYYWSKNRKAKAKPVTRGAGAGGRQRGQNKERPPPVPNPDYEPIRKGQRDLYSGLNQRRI
Protocol: as §4

[5] = biological target: T4, Mature human CD3e(1-118)_FLAG-chLys_Avi (human); test: BLI (Octet HTX); FabCys captured on Fab-specific sensor, CD3e antigen as analyte; 1:1 model
T4 construct: also called human CD3 epsilon antigen
T4 sequence (chain, as listed by the source limits assumed): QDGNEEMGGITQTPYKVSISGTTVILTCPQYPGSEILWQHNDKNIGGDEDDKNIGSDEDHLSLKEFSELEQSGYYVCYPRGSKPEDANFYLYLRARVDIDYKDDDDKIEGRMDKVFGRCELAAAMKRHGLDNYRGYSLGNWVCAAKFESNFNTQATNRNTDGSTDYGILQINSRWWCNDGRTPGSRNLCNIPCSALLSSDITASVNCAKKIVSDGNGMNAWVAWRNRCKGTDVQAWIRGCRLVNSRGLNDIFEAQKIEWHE
Protocol: as §1, §2, §3

[6] = biological target: T2, cyCD3e(1-109)_F-chLys_avi; test: as above
Protocol: as §1, §2, §3

[7] = biological target: T2, cyCD3e(1-109)_F-chLys_avi; test: BLI (Octet HTX); FabCys captured on Fab-specific sensor, CD3e antigen as analyte; 1:1 model; less precise, dissociation at assay limit
Protocol: as §1, §2, §3

[8] = biological target: T2, cyCD3e(1-109)_F-chLys_avi; test: BLI (Octet HTX); FabCys captured on Fab-specific sensor, CD3e antigen as analyte; 1:1 model; rate set to assay limit
Protocol: as §1, §2, §3

T1 sequence (Q95LI5 22-198 limits assumed): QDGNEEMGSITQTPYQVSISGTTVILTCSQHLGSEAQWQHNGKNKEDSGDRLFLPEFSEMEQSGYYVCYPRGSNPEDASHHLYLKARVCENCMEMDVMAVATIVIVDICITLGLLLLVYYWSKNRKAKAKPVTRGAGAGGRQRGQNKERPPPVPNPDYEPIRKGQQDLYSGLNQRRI

Binder | binding result [1] | koff [2] [s⁻¹] | EC50 [3] [nM] | EC50 [4] [nM] | Kd [5] [nM] | koff [5] [s⁻¹] | kon [5] [M⁻¹ s⁻¹] | kon [6] [M⁻¹ s⁻¹] | Kd [7] [nM] | koff [8] [s⁻¹] | Kd [6] [nM] | koff [6] [s⁻¹]
MAB-1 (parental) (antibody, V domains shown, also called MAB-1 IgG; parental antibody MAB-1) VH: EVQLVESGGGLVQPGGSLRLSCAASGFTFSSYWMSWVRQAPGKGLEWVANIKQDGSEKYYVDSVKGRFTISRDNAKNSLYLQMNSLRAEDTAVYYCARGYSAEFAHRSGLDVWGQGTLVTVSS VL: QSVLTQPPSASGTPGQRVTISCSGSSSNIGSNYVYWYQQLPGTAPKLLIYRNNQRPSGVPDRFSGSKSGTSASLAISGLRSEDEADYYCAAWDHHRSGAVFGGGTKLTVLG | binds | – | – | – | – | – | – | – | – | – | – | –
MAB-8_h_FabCys (Fab, V domains shown, Tagless disulfide-bridged human FabCys produced in HEK293 cells; also called MAB-8 Fab-Cys) VH: EVQLVESGGGLVQPGGSLRLSCAASGFTFRSHYMTWVRQAPGKGLEWVANIDYEGTRTYYAESVKGRFTISRDNAKNSLYLQMNSLRAEDTAVYYCARGYSAEFAHRSGLDVWGQGTLVTVSS VL: QSVLTQPPSASGTPGQRVTISCSGSSSNIGSNYVYWYQQLPGTAPKLLIYRNNQRPSGVPDRFSGSKSGTSASLAISGLRSEDEADYYCAAWDRHSHGAVFGGGTKLTVLG | – | ~5.07e-05 | 3.2 | 5.5 | 0.3 | 0.000258 | 802000 | 464000 | ~0.1 | – | – | –
MAB-9_h_FabCys (Fab, V domains shown, Tagless disulfide-bridged human FabCys produced in HEK293 cells; also called MAB-9 Fab-Cys) VH: EVQLVESGGGLVQPGGSLRLSCAASGFTFRSHYMTWVRQAPGKGLEWVANIDYEGTRTYYAESVKGRFTISRDNAKNSLYLQMNSLRAEDTAVYYCARGYSAEFAHRSGLDVWGQGTLVTVSS VL: QSVLTQPPSASGTPGQRVTISCSGSSSNIGINYVYWYQQLPGTAPKLLIYRNNIRPSGVPDRFSGSKSGTSASLAISGLRSEDEADYYCAAWDRHSHGAVFGGGTKLTVLG | – | – | 4.7 | 7.7 | 0.2 | 0.000122 | 724000 | 446000 | ≤ 0.1 | ≤ 5e-05 | – | –
MAB-16_h_FabCys (Fab, V domains shown, Tagless disulfide-bridged human FabCys produced in HEK293 cells; also called MAB-16 Fab-Cys) VH: EVQLVESGGGLVQPGGSLRLSCAASGFTFRSHYMTWVRQAPGKGLEWVANIDYEGTRTYYAESVKGRFTISRDNAKNSLYLQMNSLRAEDTAVYYCARGYSAEFAHRSGLDVWGQGTLVTVSS VL: QSVLTQPPSASGTPGQRVTISCSGSSSNIGSNYVYWYQQLPGTAPKLLIYRNNQRPSGVPDRFSGSKSGTSASLAISGLRSEDEADYYCAGWDRRLHGAVFGGGTKLTVLG | – | – | 2 | 3.3 | 0.3 | 0.000272 | 852000 | 478000 | – | – | 0.2 | 7.92e-05
MAB-12_h_FabCys (Fab, V domains shown, Tagless disulfide-bridged human FabCys produced in HEK293 cells; also called MAB-12 Fab-Cys) VH: EVQLVESGGGLVQPGGSLRLSCAASGFTFRSHYMTWVRQAPGKGLEWVANIDYEGTRTYYAESVKGRFTISRDNAKNSLYLQMNSLRAEDTAVYYCARGYSAEFAHRSGLDVWGQGTLVTVSS VL: QSVLTQPPSASGTPGQRVTISCSGSSSNIGANYVYWYQQLPGTAPKLLIYRNNQRPSGVPDRFSGSKSGTSASLAISGLRSEDEADYYCAAWDRHSHGAVFGGGTKLTVLG | – | – | 4.1 | 5.7 | 0.3 | 0.000188 | 650000 | 445000 | ≤ 0.1 | ≤ 5e-05 | – | –
MAB-7_h_FabCys (Fab, V domains shown, Tagless disulfide-bridged human FabCys produced in HEK293 cells; also called MAB-7 Fab-Cys) VH: EVQLVESGGGLVQPGGSLRLSCAASGFTFKSYYMSWVRQAPGKGLEWVANIDYQSQHAYYAESVKGRFTISRDNAKNSLYLQMNSLRAEDTAVYYCARGYSAEFAHRSGLDVWGQGTLVTVSS VL: QSVLTQPPSASGTPGQRVTISCSGSSSNIGSNYVYWYQQLPGTAPKLLIYRNNQRPSGVPDRFSGSKSGTSASLAISGLRSEDEADYYCAAWDRHSHGAVFGGGTKLTVLG | – | – | 3.7 | 6.1 | 1.3 | 0.000627 | 499000 | 370000 | – | – | 0.4 | 0.000158
MAB-13_h_FabCys (Fab, V domains shown, Tagless disulfide-bridged human FabCys produced in HEK293 cells; also called MAB-13 Fab-Cys) VH: EVQLVESGGGLVQPGGSLRLSCAASGFTFRSHYMTWVRQAPGKGLEWVANIDYEGTRTYYAESVKGRFTISRDNAKNSLYLQMNSLRAEDTAVYYCARGYSAEFAHRSGLDVWGQGTLVTVSS VL: QSVLTQPPSASGTPGQRVTISCSGSSSNIGINYVYWYQQLPGTAPKLLIYRNNQRPSGVPDRFSGSKSGTSASLAISGLRSEDEADYYCAAWDRHSHGAVFGGGTKLTVLG | – | – | 5.2 | 8.3 | 0.2 | 0.000134 | 705000 | 413000 | ≤ 0.1 | ≤ 5e-05 | – | –
